{"source": "paper PMC10397247", "key": {"O9": {"biological_target": "T1, O9", "T1 chain": "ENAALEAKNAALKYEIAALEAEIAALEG", "test": "two-hybrid library CC0;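 also: natural log of median RNA to DNA barcode read ratio; higher means stronger binding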", "details": "mean of both orientations"}, "O8": {"biological_target": "T2, O8", "T2 chain": "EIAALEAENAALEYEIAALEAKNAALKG", "test": "two-hybrid library CC0", "details": "mean of both orientations"}, "APC8516-AA": {"biological_target": "T3, APC8516-AA", "T3 chain": "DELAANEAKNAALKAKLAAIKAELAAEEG", "test": "two-hybrid library CCmax", "details": "mean of both orientations"}, "APC5531-AA": {"biological_target": "T4, APC5531-AA", "T4 chain": "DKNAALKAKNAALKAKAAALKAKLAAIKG", "test": "two-hybrid library CCmax", "details": "mean of both orientations"}, "APC6088-AA": {"biological_target": "T5, APC6088-AA", "T5 chain": "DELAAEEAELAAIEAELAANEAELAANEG", "test": "two-hybrid library CCmax", "details": "mean of both orientations"}, "APC3323-AA": {"biological_target": "T6, APC3323-AA", "T6 chain": "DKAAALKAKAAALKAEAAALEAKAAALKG", "test": "two-hybrid library CCmax"}, "APC9182-AA": {"biological_target": "T7, APC9182-AA", "T7 chain": "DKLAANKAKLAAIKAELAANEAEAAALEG", "test": "two-hybrid library CCmax", "details": "mean of both orientations"}, "APC4336-AA": {"biological_target": "T8, APC4336-AA", "T8 chain": "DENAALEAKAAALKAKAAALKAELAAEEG", "test": "two-hybrid library CCmax", "details": "mean of both orientations"}, "APC3881-AA": {"biological_target": "T9, APC3881-AA", "T9 chain": "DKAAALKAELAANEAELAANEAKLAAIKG", "test": "two-hybrid library CCmax", "details": "mean of both orientations"}, "APC9141-AA": {"biological_target": "T10, APC9141-AA", "T10 chain": "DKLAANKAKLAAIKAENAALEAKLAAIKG", "test": "two-hybrid library CCmax", "details": "mean of both orientations"}, "APC542-AA": {"biological_target": "T11, APC542-AA", "T11 chain": "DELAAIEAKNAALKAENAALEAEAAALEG", "test": "two-hybrid library CCmax", "details": "mean of both orientations"}, "APC3354-AA": {"biological_target": "T12, APC3354-AA", "T12 chain": "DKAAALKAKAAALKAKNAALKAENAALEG", "test": "two-hybrid library CCmax", "details": "mean of both orientations"}, "APC9291-AA": {"biological_target": "T13, APC9291-AA", "T13 chain": "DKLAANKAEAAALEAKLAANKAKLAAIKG", "test": "two-hybrid library CCmax", "details": "mean of both orientations"}, "APC9806-AA": {"biological_target": "T14, APC9806-AA", "T14 chain": "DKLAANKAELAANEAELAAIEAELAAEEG", "test": "two-hybrid library CCmax", "details": "mean of both orientations"}, "APC4100-AA": {"biological_target": "T15, APC4100-AA", "T15 chain": "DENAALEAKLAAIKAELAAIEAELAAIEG", "test": "two-hybrid library CCmax", "details": "mean of both orientations"}, "APC8401-AA": {"biological_target": "T16, APC8401-AA", "T16 chain": "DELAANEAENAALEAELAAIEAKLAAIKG", "test": "two-hybrid library CCmax", "details": "mean of both orientations"}, "APC5009-AA": {"biological_target": "T17, APC5009-AA", "T17 chain": "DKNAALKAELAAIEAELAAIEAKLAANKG", "test": "two-hybrid library CCmax", "details": "mean of both orientations"}, "APC7524-AA": {"biological_target": "T18, APC7524-AA", "T18 chain": "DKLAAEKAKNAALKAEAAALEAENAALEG", "test": "two-hybrid library CCmax", "details": "mean of both orientations"}, "O7-bA": {"biological_target": "T19, O7-bA", "T19 chain": "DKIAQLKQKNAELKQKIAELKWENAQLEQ", "test": "two-hybrid library CCNG1"}, "O9-bA": {"biological_target": "T20, O9-bA", "T20 chain": "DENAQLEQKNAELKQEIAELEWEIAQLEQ", "test": "two-hybrid library CCNG1"}, "O8-bA": {"biological_target": "T21, O8-bA", "T21 chain": "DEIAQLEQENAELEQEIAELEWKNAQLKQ", "test": "two-hybrid library CCNG1"}, "4H3709-AA": {"biological_target": "T22, 4H3709-AA", "T22 chain": "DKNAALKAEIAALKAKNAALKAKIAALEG", "test": "two-hybrid library CCmax", "details": "mean of both orientations"}, "4H3102-AA": {"biological_target": "T23, 4H3102-AA", "T23 chain": "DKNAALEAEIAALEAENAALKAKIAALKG", "test": "two-hybrid library CCmax", "details": "mean of both orientations"}, "4H675-AA": {"biological_target": "T24, 4H675-AA", "T24 chain": "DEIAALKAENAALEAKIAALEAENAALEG", "test": "two-hybrid library CCmax", "details": "mean of both orientations"}, "4H3666-AA": {"biological_target": "T25, 4H3666-AA", "T25 chain": "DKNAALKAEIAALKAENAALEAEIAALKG", "test": "two-hybrid library CCmax", "details": "mean of both orientations"}, "4H3628-AA": {"biological_target": "T26, 4H3628-AA", "T26 chain": "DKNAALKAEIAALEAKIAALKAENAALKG", "test": "two-hybrid library CCmax"}, "4H3591-AA": {"biological_target": "T27, 4H3591-AA", "T27 chain": "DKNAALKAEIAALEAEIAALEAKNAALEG", "test": "two-hybrid library CCmax", "details": "mean of both orientations"}, "4H656-AA": {"biological_target": "T28, 4H656-AA", "T28 chain": "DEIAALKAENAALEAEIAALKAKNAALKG", "test": "two-hybrid library CCmax", "details": "mean of both orientations"}, "4H497-AA": {"biological_target": "T29, 4H497-AA", "T29 chain": "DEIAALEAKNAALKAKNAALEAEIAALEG", "test": "two-hybrid library CCmax", "details": "mean of both orientations"}, "4H3121-AA": {"biological_target": "T30, 4H3121-AA", "T30 chain": "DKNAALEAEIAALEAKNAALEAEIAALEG", "test": "two-hybrid library CCmax", "details": "mean of both orientations"}, "4H3939-AA": {"biological_target": "T31, 4H3939-AA", "T31 chain": "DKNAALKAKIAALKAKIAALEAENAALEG", "test": "two-hybrid library CCmax", "details": "mean of both orientations"}, "4H3920-AA": {"biological_target": "T32, 4H3920-AA", "T32 chain": "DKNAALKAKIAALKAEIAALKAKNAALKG", "test": "two-hybrid library CCmax", "details": "mean of both orientations"}, "4H2948-AA": {"biological_target": "T33, 4H2948-AA", "T33 chain": "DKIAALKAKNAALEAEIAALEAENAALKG", "test": "two-hybrid library CCmax", "details": "mean of both orientations"}, "4H971-AA": {"biological_target": "T34, 4H971-AA", "T34 chain": "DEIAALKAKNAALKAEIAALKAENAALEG", "test": "two-hybrid library CCmax", "details": "mean of both orientations"}, "4H3029-AA": {"biological_target": "T35, 4H3029-AA", "T35 chain": "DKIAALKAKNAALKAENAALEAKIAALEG", "test": "two-hybrid library CCmax", "details": "mean of both orientations"}, "4H2991-AA": {"biological_target": "T36, 4H2991-AA", "T36 chain": "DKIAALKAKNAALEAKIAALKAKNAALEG", "test": "two-hybrid library CCmax"}, "4H391-AA": {"biological_target": "T37, 4H391-AA", "T37 chain": "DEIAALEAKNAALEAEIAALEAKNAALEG", "test": "two-hybrid library CCmax", "details": "mean of both orientations"}, "4H478-AA": {"biological_target": "T38, 4H478-AA", "T38 chain": "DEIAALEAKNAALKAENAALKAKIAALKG", "test": "two-hybrid library CCmax", "details": "mean of both orientations"}, "4H3417-AA": {"biological_target": "T39, 4H3417-AA", "T39 chain": "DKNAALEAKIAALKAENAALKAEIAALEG", "test": "two-hybrid library CCmax", "details": "mean of both orientations"}, "4H3066-AA": {"biological_target": "T40, 4H3066-AA", "T40 chain": "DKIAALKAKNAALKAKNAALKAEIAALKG", "test": "two-hybrid library CCmax", "details": "mean of both orientations"}, "4H3446-AA": {"biological_target": "T41, 4H3446-AA", "T41 chain": "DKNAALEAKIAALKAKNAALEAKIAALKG", "test": "two-hybrid library CCmax", "details": "mean of both orientations"}, "4H428-AA": {"biological_target": "T42, 4H428-AA", "T42 chain": "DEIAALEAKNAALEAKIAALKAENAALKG", "test": "two-hybrid library CCmax", "details": "mean of both orientations"}, "4H2742-AA": {"biological_target": "T43, 4H2742-AA", "T43 chain": "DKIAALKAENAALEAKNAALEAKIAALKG", "test": "two-hybrid library CCmax"}}}
{"binder": "EIAALEAENAALEYEIAALEAKNAALKG", "note": "[O8]", "values": [{"measurement": "interaction score", "setting": "O9", "result": -2.53}, {"measurement": "interaction score", "setting": "O8", "result": -2.62}]}
{"binder": "DKAAALKAKAAALKAEAAALEAKAAALKG", "note": "[APC3323-AA]", "values": [{"measurement": "interaction score", "setting": "APC8516-AA", "result": -1.75}, {"measurement": "interaction score", "setting": "APC5531-AA", "result": -1.7}, {"measurement": "interaction score", "setting": "APC6088-AA", "result": -1.65}, {"measurement": "interaction score", "setting": "APC3323-AA", "result": 0.173}, {"measurement": "interaction score", "setting": "APC9182-AA", "result": -1.64}, {"measurement": "interaction score", "setting": "APC4336-AA", "result": -2.27}, {"measurement": "interaction score", "setting": "APC3881-AA", "result": -1.64}, {"measurement": "interaction score", "setting": "APC9141-AA", "result": -2.12}, {"measurement": "interaction score", "setting": "APC542-AA", "result": -1.45}, {"measurement": "interaction score", "setting": "APC3354-AA", "result": -1.64}, {"measurement": "interaction score", "setting": "APC9291-AA", "result": -1.84}, {"measurement": "interaction score", "setting": "APC9806-AA", "result": -1.66}, {"measurement": "interaction score", "setting": "APC4100-AA", "result": 1.59}, {"measurement": "interaction score", "setting": "APC8401-AA", "result": -1.35}, {"measurement": "interaction score", "setting": "APC5009-AA", "result": -1.38}, {"measurement": "interaction score", "setting": "APC7524-AA", "result": -1.5}]}
{"binder": "DKIAQLKQKNAELKQKIAELKWENAQLEQ", "note": "[O7-bA]", "values": [{"measurement": "interaction score", "setting": "O7-bA", "result": -1.12}, {"measurement": "interaction score", "setting": "O9-bA", "result": -0.962}, {"measurement": "interaction score", "setting": "O8-bA", "result": 2.08}]}
{"binder": "DKIAALKAENAALEAKNAALEAKIAALKG", "note": "[4H2742-AA]", "values": [{"measurement": "interaction score", "setting": "4H3709-AA", "result": -1.19}, {"measurement": "interaction score", "setting": "4H3102-AA", "result": -1.33}, {"measurement": "interaction score", "setting": "4H675-AA", "result": -1.53}, {"measurement": "interaction score", "setting": "4H3666-AA", "result": -1.97}, {"measurement": "interaction score", "setting": "4H3628-AA", "result": -1.49}, {"measurement": "interaction score", "setting": "4H3591-AA", "result": -0.99}, {"measurement": "interaction score", "setting": "4H656-AA", "result": -2}, {"measurement": "interaction score", "setting": "4H497-AA", "result": 2.42}, {"measurement": "interaction score", "setting": "4H3121-AA", "result": -1.7}, {"measurement": "interaction score", "setting": "4H3939-AA", "result": -1.63}, {"measurement": "interaction score", "setting": "4H3920-AA", "result": -1.23}, {"measurement": "interaction score", "setting": "4H2948-AA", "result": -0.899}, {"measurement": "interaction score", "setting": "4H971-AA", "result": -1.91}, {"measurement": "interaction score", "setting": "4H3029-AA", "result": 0.775}, {"measurement": "interaction score", "setting": "4H2991-AA", "result": -0.693}, {"measurement": "interaction score", "setting": "4H391-AA", "result": -1.21}, {"measurement": "interaction score", "setting": "4H478-AA", "result": 1.12}, {"measurement": "interaction score", "setting": "4H3417-AA", "result": -1.41}, {"measurement": "interaction score", "setting": "4H3066-AA", "result": 1.72}, {"measurement": "interaction score", "setting": "4H3446-AA", "result": -1.39}, {"measurement": "interaction score", "setting": "4H428-AA", "result": -1.6}, {"measurement": "interaction score", "setting": "4H2742-AA", "result": -0.3}]}
